Measured values published in US20260098080A1, “A MODIFIED PROTEIN SCAFFOLD AND USE THEREOF” (EVOLVERITAS BIOTECHNOLÓGIAI KORLÁTOLT FELELOSSÉGU TÁRSASÁG, priority 2022, published 2026).
Substitutions are numbered along the chain they refer to. Where no end group is shown, it is not given here.

B1: EVO25 (designed binder)
chain: KPDFCFLENDPGPCRALKRRYFYNNQTKQCERFYYGGCFGNMNNFETLEECKNICEDG
modifications: not fully specified; cysteine pairing not given here
notes: Modified TFPI-D2 Kunitz domain; made as m1
B2: EVO21b (designed binder)
chain: B1 chain with N9E, Y34G, F39L, E46V
modifications: not fully specified; cysteine pairing not given here
B3: EVO211a (designed binder)
chain: B1 chain with N9E, P13W, Y34G, E46V
B4: EVO22d (designed binder)
chain: B1 chain with N9E, L17A, E46V
B5: EVO23a (designed binder)
chain: B1 chain with N9E, E46V
B6: EVO214a (designed binder)
chain: B1 chain with N9E, R19L, Y34G, E46V
B7: EVO21a (designed binder)
chain: B1 chain with L17V, Y34G, F39L, E46V
modifications: not fully specified; cysteine pairing not given here
notes: as for B1
B8: EVO2a (designed binder)
chain: B1 chain with L17V, Y34K, F39L
modifications: not fully specified; cysteine pairing not given here
notes: as for B1
B9: EVO213 (designed binder)
chain: B1 chain with L17A, Y34G, F39L, E46V
notes: as for B1
B10: EVO212 (designed binder)
chain: B1 chain with P13L, Y34G, F39L, E46V
modifications: not fully specified; ends and bridges not checked
notes: as for B1
B11: EVO22b (designed binder)
chain: B1 chain with K18A, F39L, E46V
modifications: not fully specified; cysteine pairing not given here
notes: as for B1
B12: EVO211 (designed binder)
chain: B1 chain with P13W, Y34G, F39L, E46V
modifications: not fully specified; ends and bridges not checked
notes: as for B1
B13: EVO2c (designed binder)
chain: B1 chain with N9E, L17V, F39L
modifications: not fully specified; cysteine pairing not given here
notes: as for B1
B14: EVO2b (designed binder)
chain: B1 chain with N9E, L17V, Y34G, F39L
modifications: not fully specified; cysteine pairing not given here
notes: as for B1
B15: EVO215 (designed binder)
chain: B1 chain with P13W, L17A, Y34G, F39L, E46V
modifications: not fully specified; ends and bridges not checked
notes: as for B1
B16: EVO22a (designed binder)
chain: B1 chain with L17A, F39L, E46V
notes: as for B1
B17: EVO2d (designed binder)
chain: B1 chain with N9E, Y34K, F39L
modifications: not fully specified; cysteine pairing not given here
notes: as for B1
B18: EVO216 (designed binder)
chain: B1 chain with P13W, L17A, R19L, Y34G, F39L, E46V
modifications: not fully specified; cysteine pairing not given here
notes: as for B1
B19: EVO21d (designed binder)
chain: B1 chain with N9E, Y34S, E46V
modifications: not fully specified; cysteine pairing not given here

Each binder was assayed against T1, rat MASP-2cf CCP1-CCP2-SP (rat, UniProt Q9JJS8 298-685) (assay: enzyme inhibition, tight-binding fit).
T1 construct: range 298-685; Mw 42309 Da; also called rat MASP-2 catalytic fragment
T1 sequence (Q9JJS8 other isoform, or with tags, fused parts or gaps limits assumed, form in doubt): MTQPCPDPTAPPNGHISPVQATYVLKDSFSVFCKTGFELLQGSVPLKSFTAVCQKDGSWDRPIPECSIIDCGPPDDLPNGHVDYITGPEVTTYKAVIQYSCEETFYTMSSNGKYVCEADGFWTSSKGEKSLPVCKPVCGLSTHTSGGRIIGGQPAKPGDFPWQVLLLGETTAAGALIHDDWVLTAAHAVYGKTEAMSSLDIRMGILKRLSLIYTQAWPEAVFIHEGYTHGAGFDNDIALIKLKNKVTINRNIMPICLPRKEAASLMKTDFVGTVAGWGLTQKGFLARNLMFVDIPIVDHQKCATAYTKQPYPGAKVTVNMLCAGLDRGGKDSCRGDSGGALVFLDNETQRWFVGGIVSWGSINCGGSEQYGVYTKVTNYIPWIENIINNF

With B1 the Ki was 0.9 nM.

The binders below were run against T2, human MASP-2 (in normal human serum) (human, UniProt O00187 16-686) (assay: cell-based or functional assay).
T2 sequence (O00187 16-686 limits assumed): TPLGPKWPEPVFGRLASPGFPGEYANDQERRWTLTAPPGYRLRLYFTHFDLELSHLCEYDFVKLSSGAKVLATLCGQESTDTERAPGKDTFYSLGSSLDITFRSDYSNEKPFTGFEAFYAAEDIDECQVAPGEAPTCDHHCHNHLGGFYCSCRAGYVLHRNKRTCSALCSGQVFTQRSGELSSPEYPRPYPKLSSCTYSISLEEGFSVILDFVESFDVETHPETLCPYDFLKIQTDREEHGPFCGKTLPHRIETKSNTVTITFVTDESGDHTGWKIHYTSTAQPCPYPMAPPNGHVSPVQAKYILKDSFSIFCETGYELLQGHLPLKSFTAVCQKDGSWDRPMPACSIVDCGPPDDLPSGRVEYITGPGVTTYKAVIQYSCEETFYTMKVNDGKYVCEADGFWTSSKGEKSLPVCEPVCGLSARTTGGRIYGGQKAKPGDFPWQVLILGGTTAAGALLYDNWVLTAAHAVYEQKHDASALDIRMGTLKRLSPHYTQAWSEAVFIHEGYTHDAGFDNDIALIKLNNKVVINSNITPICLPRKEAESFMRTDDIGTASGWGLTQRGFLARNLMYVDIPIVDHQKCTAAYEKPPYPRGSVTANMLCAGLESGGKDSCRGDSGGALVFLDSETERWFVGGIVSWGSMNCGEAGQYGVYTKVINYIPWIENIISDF

Point of comparison: B5, “Relative potency (relative human lectin pathway inhibitory efficiency compared to EVO2)” value 43.1 fold relative to EVO2. Against it:
- B2 — lower, 32.1 fold relative to EVO2
- B3 — lower, 13.5 fold relative to EVO2
- B4 — lower, 24.6 fold relative to EVO2
- B6 — lower, 15.2 fold relative to EVO2
- B7 — lower, 6.4 fold relative to EVO2

The binders below were run against T3, human MASP-2cf CCP1-CCP2-SP (human, UniProt O00187 298-686, limits assumed) (assay: SPR, target immobilised).
T3 construct: domain: CCP1-CCP2-SP; also called human MASP-2 catalytic fragment
T3 sequence (O00187 298-686 limits assumed): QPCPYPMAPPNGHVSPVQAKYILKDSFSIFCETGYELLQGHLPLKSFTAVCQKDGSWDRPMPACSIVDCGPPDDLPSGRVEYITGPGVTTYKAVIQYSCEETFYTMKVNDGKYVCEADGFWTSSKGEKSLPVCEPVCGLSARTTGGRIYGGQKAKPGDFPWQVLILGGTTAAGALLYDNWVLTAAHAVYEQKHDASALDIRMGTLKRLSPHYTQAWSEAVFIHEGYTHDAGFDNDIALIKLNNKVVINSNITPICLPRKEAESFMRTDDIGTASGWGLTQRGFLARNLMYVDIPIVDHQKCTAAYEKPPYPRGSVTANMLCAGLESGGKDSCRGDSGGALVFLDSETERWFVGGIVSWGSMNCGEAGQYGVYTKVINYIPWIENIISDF

Point of comparison: B1, Kd 0.203 nM. Against it:
- B8 — 15-fold higher, 2.95 nM
- B9 — 2.7-fold higher, 0.542 nM
- B10 — 3.7-fold lower, 0.055 nM
- B11 — within 1.5-fold, 0.21 nM
- B12 — 4.7-fold lower, 0.043 nM
- B13 — 5.1-fold higher, 1.04 nM
- B7 — 3.6-fold higher, 0.723 nM
- B14 — 9.7-fold higher, 1.97 nM
- B15 — within 1.5-fold, 0.304 nM
- B17 — 5.9-fold higher, 1.19 nM
- B18 — 3.7-fold higher, 0.76 nM

Point of comparison: B16, Relative affinity 40.1 fold vs EVO2. Against it:
- B8 — lower, 0.6 fold vs EVO2
- B9 — lower, 3.3 fold vs EVO2
- B10 — lower, 32.7 fold vs EVO2
- B11 — lower, 8.5 fold vs EVO2
- B12 — higher, 41.6 fold vs EVO2
- B1 — lower, 8.8 fold vs EVO2
- B13 — lower, 1.7 fold vs EVO2
- B7 — lower, 2.5 fold vs EVO2
- B14 — lower, 0.9 fold vs EVO2
- B15 — lower, 5.9 fold vs EVO2
- B17 — lower, 1.5 fold vs EVO2
- B18 — lower, 2.4 fold vs EVO2

Point of comparison: B14, koff 0.00156 s⁻¹. Against it:
- B8 — within 1.5-fold, 0.0021 s⁻¹
- B9 — 3-fold lower, 0.000524 s⁻¹
- B10 — 19-fold lower, 8.26e-05 s⁻¹
- B11 — 6-fold lower, 0.00026 s⁻¹
- B12 — 24-fold lower, 6.62e-05 s⁻¹
- B1 — 3.6-fold lower, 0.000438 s⁻¹
- B13 — within 1.5-fold, 0.00161 s⁻¹
- B7 — 1.9-fold lower, 0.000839 s⁻¹
- B15 — 2.8-fold lower, 0.000559 s⁻¹
- B16 — 17-fold lower, 9.09e-05 s⁻¹
- B17 — within 1.5-fold, 0.00108 s⁻¹
- B18 — 2.1-fold lower, 0.000732 s⁻¹

Point of comparison: B11, kon 1.24e+06 M⁻¹ s⁻¹. Against it:
- B8 — 1.7-fold lower, 711000 M⁻¹ s⁻¹
- B9 — within 1.5-fold, 967000 M⁻¹ s⁻¹
- B10 — within 1.5-fold, 1.51e+06 M⁻¹ s⁻¹
- B12 — within 1.5-fold, 1.54e+06 M⁻¹ s⁻¹
- B1 — 1.7-fold higher, 2.16e+06 M⁻¹ s⁻¹
- B13 — within 1.5-fold, 1.55e+06 M⁻¹ s⁻¹
- B7 — within 1.5-fold, 1.16e+06 M⁻¹ s⁻¹
- B14 — 1.6-fold lower, 790000 M⁻¹ s⁻¹
- B15 — within 1.5-fold, 1.84e+06 M⁻¹ s⁻¹
- B16 — 1.6-fold higher, 2.04e+06 M⁻¹ s⁻¹
- B17 — within 1.5-fold, 909000 M⁻¹ s⁻¹
- B18 — within 1.5-fold, 963000 M⁻¹ s⁻¹

What follows are binders tested against T1, rat MASP-2cf CCP1-CCP2-SP (assay: SPR, target immobilised).

Point of comparison: B14, Kd 1.95 nM. Against it:
- B8 — 2.4-fold higher, 4.73 nM
- B9 — 2-fold higher, 3.81 nM
- B10 — 1.5-fold lower, 1.26 nM
- B11 — 12-fold lower, 0.163 nM
- B12 — within 1.5-fold, 2.87 nM
- B1 — 2.5-fold lower, 0.787 nM
- B13 — within 1.5-fold, 1.31 nM
- B7 — within 1.5-fold, 2.02 nM
- B16 — 10-fold lower, 0.192 nM
- B17 — 1.8-fold lower, 1.08 nM

Point of comparison: B16, Relative affinity 18.9 fold vs EVO2. Against it:
- B8 — lower, 0.8 fold vs EVO2
- B9 — lower, 1 fold vs EVO2
- B10 — lower, 2.9 fold vs EVO2
- B11 — higher, 22.3 fold vs EVO2
- B12 — lower, 1.3 fold vs EVO2
- B1 — lower, 4.6 fold vs EVO2
- B13 — lower, 2.8 fold vs EVO2
- B7 — lower, 1.8 fold vs EVO2
- B14 — lower, 1.9 fold vs EVO2
- B17 — lower, 3.4 fold vs EVO2

Point of comparison: B9, koff 0.00147 s⁻¹. Against it:
- B8 — within 1.5-fold, 0.00151 s⁻¹
- B10 — 2.4-fold lower, 0.000618 s⁻¹
- B11 — 9.2-fold lower, 0.000159 s⁻¹
- B12 — 1.8-fold higher, 0.0027 s⁻¹
- B1 — 1.8-fold lower, 0.000826 s⁻¹
- B13 — 1.5-fold lower, 0.000978 s⁻¹
- B7 — within 1.5-fold, 0.00104 s⁻¹
- B14 — 1.6-fold lower, 0.000942 s⁻¹
- B16 — 9-fold lower, 0.000163 s⁻¹
- B17 — 3.4-fold lower, 0.000438 s⁻¹

Point of comparison: B12, kon 942000 M⁻¹ s⁻¹. Against it:
- B8 — 3-fold lower, 319000 M⁻¹ s⁻¹
- B9 — 2.4-fold lower, 386000 M⁻¹ s⁻¹
- B10 — 1.9-fold lower, 492000 M⁻¹ s⁻¹
- B11 — within 1.5-fold, 975000 M⁻¹ s⁻¹
- B1 — within 1.5-fold, 1.05e+06 M⁻¹ s⁻¹
- B13 — within 1.5-fold, 747000 M⁻¹ s⁻¹
- B7 — 1.8-fold lower, 515000 M⁻¹ s⁻¹
- B14 — 1.9-fold lower, 484000 M⁻¹ s⁻¹
- B16 — within 1.5-fold, 847000 M⁻¹ s⁻¹
- B17 — 2.3-fold lower, 405000 M⁻¹ s⁻¹

These binders were tested against rat MASP-2 (in rat serum) (rat, UniProt Q9JJS8 20-685) (assay: cell-based or functional assay).
Sequence of rat MASP-2 (in rat serum) (Q9JJS8 20-685 limits assumed): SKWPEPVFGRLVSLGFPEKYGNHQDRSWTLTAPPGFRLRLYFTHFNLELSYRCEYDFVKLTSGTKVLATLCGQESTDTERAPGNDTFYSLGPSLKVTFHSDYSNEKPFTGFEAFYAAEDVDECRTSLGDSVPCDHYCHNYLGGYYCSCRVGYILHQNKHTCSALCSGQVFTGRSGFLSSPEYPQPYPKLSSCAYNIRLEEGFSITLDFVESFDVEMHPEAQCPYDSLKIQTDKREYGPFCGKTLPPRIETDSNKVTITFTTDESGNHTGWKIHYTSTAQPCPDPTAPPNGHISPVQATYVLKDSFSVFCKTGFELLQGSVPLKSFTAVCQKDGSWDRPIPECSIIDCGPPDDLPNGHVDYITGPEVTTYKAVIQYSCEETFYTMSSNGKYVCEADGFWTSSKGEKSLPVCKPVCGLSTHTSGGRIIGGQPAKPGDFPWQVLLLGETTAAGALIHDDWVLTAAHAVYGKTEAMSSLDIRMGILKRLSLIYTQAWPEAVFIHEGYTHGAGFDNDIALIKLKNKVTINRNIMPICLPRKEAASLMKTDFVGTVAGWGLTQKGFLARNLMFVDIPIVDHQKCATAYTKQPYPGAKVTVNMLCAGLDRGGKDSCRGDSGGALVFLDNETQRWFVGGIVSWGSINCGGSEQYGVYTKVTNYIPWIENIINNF

Point of comparison: B6, “IC50, lectin pathway C4 deposition, rat serum” value 20.3 nM. Against it:
- B8 — 10-fold higher, 213 nM
- B19 — within 1.5-fold, 25.9 nM
- B2 — 2.8-fold lower, 7.2 nM
- B3 — 1.5-fold higher, 30.6 nM
- B4 — 2-fold lower, 10.4 nM
- B5 — within 1.5-fold, 14.1 nM
- B9 — 4.4-fold higher, 88.7 nM
- B10 — 2.3-fold higher, 46.3 nM
- B11 — 2.1-fold lower, 9.7 nM
- B12 — 2.6-fold higher, 53.2 nM
- B1 — within 1.5-fold, 15 nM
- B13 — 1.7-fold higher, 34.3 nM
- B7 — 1.9-fold higher, 39.4 nM
- B14 — 1.7-fold higher, 34.3 nM
- B16 — 1.9-fold lower, 10.6 nM
- B17 — 3.5-fold higher, 70.9 nM

Point of comparison: B11, “Relative potency, lectin pathway, rat serum” value 11 fold vs EVO2. Against it:
- B8 — lower, 0.5 fold vs EVO2
- B19 — lower, 4.1 fold vs EVO2
- B2 — higher, 14.7 fold vs EVO2
- B3 — lower, 3.5 fold vs EVO2
- B4 — lower, 10.2 fold vs EVO2
- B5 — lower, 7.5 fold vs EVO2
- B6 — lower, 5.2 fold vs EVO2
- B9 — lower, 1.2 fold vs EVO2
- B10 — lower, 2.3 fold vs EVO2
- B12 — lower, 2 fold vs EVO2
- B1 — lower, 7.1 fold vs EVO2
- B13 — lower, 3.1 fold vs EVO2
- B7 — lower, 2.7 fold vs EVO2
- B14 — lower, 3.1 fold vs EVO2
- B16 — lower, 10 fold vs EVO2
- B17 — lower, 1.5 fold vs EVO2

Target: T2, human MASP-2 (in normal human serum)
Assay: cell-based or functional assay
Remark: another data set of the same source

Point of comparison: B15, “IC50, lectin pathway C4 deposition, human serum” value 22.7 nM. Against it:
- B8 — 9.5-fold higher, 215 nM
- B19 — 2.7-fold lower, 8.3 nM
- B2 — 5.3-fold lower, 4.3 nM
- B3 — 2.5-fold lower, 9.1 nM
- B4 — 4.1-fold lower, 5.6 nM
- B5 — 7.1-fold lower, 3.2 nM
- B6 — 2.2-fold lower, 10.2 nM
- B9 — within 1.5-fold, 28.3 nM
- B10 — 3.7-fold lower, 6.2 nM
- B11 — 1.7-fold lower, 13.7 nM
- B12 — 7.3-fold lower, 3.1 nM
- B1 — 4.1-fold lower, 5.6 nM
- B13 — within 1.5-fold, 22.3 nM
- B7 — within 1.5-fold, 21.4 nM
- B14 — 2.8-fold higher, 62.7 nM
- B16 — 6.1-fold lower, 3.7 nM
- B17 — 2.7-fold higher, 60.3 nM
- B18 — within 1.5-fold, 30.9 nM

Point of comparison: B8, “Relative potency, lectin pathway, human serum” value 0.6 fold vs EVO2. Against it:
- B19 — higher, 16.6 fold vs EVO2
- B2 — higher, 31.9 fold vs EVO2
- B3 — higher, 15.2 fold vs EVO2
- B4 — higher, 24.7 fold vs EVO2
- B5 — higher, 43 fold vs EVO2
- B6 — higher, 13.6 fold vs EVO2
- B9 — higher, 4.9 fold vs EVO2
- B10 — higher, 22.1 fold vs EVO2
- B11 — higher, 10 fold vs EVO2
- B12 — higher, 44 fold vs EVO2
- B1 — higher, 24.5 fold vs EVO2
- B13 — higher, 6.2 fold vs EVO2
- B7 — higher, 6.5 fold vs EVO2
- B14 — higher, 2.2 fold vs EVO2
- B15 — higher, 6.1 fold vs EVO2
- B16 — higher, 37.1 fold vs EVO2
- B17 — higher, 2.3 fold vs EVO2
- B18 — higher, 4.5 fold vs EVO2
